In patent US20240425579A1:

Assays:
[1] = biological target: T1, biotinylated hu-PDL2 (human) (UniProt Q9BQ51); test: ELISA: varying concentrations of construct coated, fixed biotinylated hu-PDL2 (500 ng/mL)
T1 sequence (biotinylated, looked up): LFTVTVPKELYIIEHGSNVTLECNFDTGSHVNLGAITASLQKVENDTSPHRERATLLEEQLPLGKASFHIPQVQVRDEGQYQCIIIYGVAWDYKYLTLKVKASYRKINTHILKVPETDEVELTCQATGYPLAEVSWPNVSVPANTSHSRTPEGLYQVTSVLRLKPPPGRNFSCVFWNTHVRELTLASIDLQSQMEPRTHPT

[2] = biological target: T1, biotinylated hu-PDL2 (human); test: ELISA: construct coated at 1 µg/mL, varying biotinylated hu-PDL2, streptavidin-HRP

Sequence of wild type PD1 construct (wild-type PD1 ECD comparator of anti-IL-23-PD1ecd) (heavy, part): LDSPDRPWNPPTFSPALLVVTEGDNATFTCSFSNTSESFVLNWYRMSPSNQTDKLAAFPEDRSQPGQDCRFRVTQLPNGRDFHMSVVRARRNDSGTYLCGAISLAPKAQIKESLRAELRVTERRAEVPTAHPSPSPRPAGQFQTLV

## wild type PD1 construct (wild-type PD1 ECD comparator of anti-IL-23-PD1ecd)
[1]
  EC50: 6 µM
[2]
  EC50: 0.131 µM
